The target of this assay is T1, peptide on HLA-C*06:02 (human).
T1 peptide: TRATKMQVI
Description: activation reporter or marker.

B1: TCR-TRAT (TCR, V domains shown)
Valpha: GEDVEQSLFLSVREGDSSVINCTYTDSSSTYLYWYKQEPGAGLQLLTYIFSNMDMKQDQRLTVLLNKKDKHLSLRIADTQTGDSAIYFCAESSNLSGNTPLVFGKGTRLSVIA
Vbeta: AAGVIQSPRHLIKEKRETATLKCYPIPRHDTVYWYQQGPGQDPQFLISFYEKMQSDKGSIPDRFSAQQFSDYHSELNMSSLELGDSALYFCASGLAGITGELFFGEGSRLTVL
For the molecule B1, the binding result is listed as “recognises”.
